Measurements from patent US20180250415A1 (Scripps Research, published 2018).

T1: CD138 (human, UniProt P18827 23-310)
T1 construct: whole, on cells; also called CD138 on H929 and U266 cells
T1 sequence (looked up): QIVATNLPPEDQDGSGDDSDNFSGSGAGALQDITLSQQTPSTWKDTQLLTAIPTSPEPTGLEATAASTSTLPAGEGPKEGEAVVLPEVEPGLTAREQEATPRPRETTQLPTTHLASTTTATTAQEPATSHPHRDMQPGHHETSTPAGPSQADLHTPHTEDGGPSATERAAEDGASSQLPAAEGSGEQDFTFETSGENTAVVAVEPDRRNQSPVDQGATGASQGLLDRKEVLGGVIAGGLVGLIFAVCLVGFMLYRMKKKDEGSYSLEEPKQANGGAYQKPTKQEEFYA

T2: CD79b (UniProt P40259 29-229, limits assumed)
T2 construct: whole, on cells; also called CD79b on Ramos cells
T2 sequence (looked up): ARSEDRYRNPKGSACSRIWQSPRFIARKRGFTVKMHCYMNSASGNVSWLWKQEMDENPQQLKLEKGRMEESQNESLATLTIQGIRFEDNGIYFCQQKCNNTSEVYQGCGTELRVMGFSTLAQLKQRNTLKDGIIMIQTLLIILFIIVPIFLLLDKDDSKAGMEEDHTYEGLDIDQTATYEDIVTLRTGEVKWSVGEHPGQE


What was measured:
CD138 = target: T1, CD138; assay: flow cytometry on H929 and U266 (CD138+) cells, detected with 647-conjugated F(ab')2 donkey anti-human Fc [CONT.]
Description: (§1) The binding activities of these DVDs are also tested against target expressing cells. […] The cells are washed with 200 μL flow cytometry buffer (PBS, 2% (w/v) FBS, pH 7.4), are incubated with DVD1 or DVD2 for 30 min on ice, are washed with 200 μL flow cytometry buffer, and are stained with 647 conjugated polyclonal (Fab′)₂ donkey anti-human Fc (Jackson ImmunoResearch Laboratories) for 20 min on ice. After washing twice with 200 μL ice-cold flow cytometry buffer, the cells are analyzed using a Canto II Flow Cytometer (Becton-Dickinson). Data were analyzed using FlowJo software (Tree Star).

HER2 = target: T3, HER2 (human, UniProt P04626 23-1255); assay: flow cytometry on SK-BR-3 (SKBR3, HER2+) cells, detected with 647-conjugated F(ab')2 donkey anti-human Fc
T3 construct: whole, on cells; also called ERBB2; HER2 on SK-BR-3 (SKBR3) cells
Description: as §1

CD79b = target: T2, CD79b; assay: flow cytometry on Ramos (CD79b+) cells, detected with 647-conjugated F(ab')2 donkey anti-human Fc [CONT.]
Description: as §1

Binder	binding result (CD138)	binding result (HER2)	binding result (CD79b)
CD138-h38C2-DVD1 immunoglobulin (antibody, human IgG1, kappa, also called CD138 DVD; anti-CD138 DVD1) light: DIQMTQSTSSLSASLGDRVTISCSASQGINNYLNWYQQKPDGTVELLIYYTSTLQSGVPSRFSGSGSGTDYSLTISNLEPEDIGTYYCQQYSKLPRTFGGGTKLEIKASTKGPELQMTQSPSSLSASVGDRVTITCRSSQSLLHTYGSPYLNWYLQKPGQSPKLLIYKVSNRFSGVPSRFSGSGSGTDFTLTISSLQPEDFAVYFCSQGTHLPYTFGGGTKVEIKRTVAAPSVFIFPPSDEQLKSGTASVVCLLNNFYPREAKVQWKVDNALQSGNSQESVTEQDSKDSTYSLSSTLTLSKADYEKHKVYACEVTHQGLSSPVTKSFNRGEC heavy: not shown	binds	–	–
h38C2 IgG1 (antibody, V domains shown, also called parent h38C2 IgG1; unconjugated humanized 38C2 antibody) VH: EVQLVESGGGLVQPGGSLRLSCAASGFTFSNYWMSWVRQSPEKGLEWVSEIRLRSDNYATHYAESVKGRFTISRDNSKNTLYLQMNSLRAEDTGIYYCKTYFYSFSYWGQGTLVTVSS VL: ELQMTQSPSSLSASVGDRVTITCRSSQSLLHTYGSPYLNWYLQKPGQSPKLLIYKVSNRFSGVPSRFSGSGSGTDFTLTISSLQPEDFAVYFCSQGTHLPYTFGGGTKVEIK	no binding	no binding	no binding
